In the supplement of paper PMC10567573:
± gives the standard deviation.

Experiment: protein stability index of a GFP-peptide fusion (GPS, HEK-293T) (PSI 1-6); higher = more stable
[1] = treatment: DMSO, c terminus: a fixed tail appended
[2] = treatment: MLN4924 1 uM, 8 h, c terminus: a fixed tail appended
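Note: 24-mer peptide tiles fused after GFP, lentivirally expressed, FACS-sorted into six equal bins by GFP/DsRed ratio, decoded by Illumina sequencing, PSI is the read-weighted mean bin number.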

Sequence | protein stability index [1] | protein stability index [2] | protein stability index (treatment: DMSO, c terminus: native) | protein stability index (treatment: MLN4924 1 uM, 8 h, c terminus: native)
YRFHEHWRFVLQRLVFLAAFVVYL [TSN] | 2.86 ± 0.37 | 2.8 ± 0.96 | – | –
YRQKKRAEQEALTGECKELEKKNE [ATF4] | 5.47 ± 0.24 | 5.59 ± 0.19 | – | –
YSGAYGASVSDEELKRRVAEELAL [CHCHD3] | 3.11 ± 0.52 | 3.53 ± 1.1 | – | –
YTNSAGVPSLNAALMHTLQRHRDI [GOSR1] | 2.79 ± 0.15 | 2.92 ± 0.23 | – | –
YVFFEKDFGDMHSYVRSRKRLREE [TRIB1] | 2.46 ± 0.59 | 2.66 ± 0.93 | – | –
YVIVSGAQRKEERWDMADNEQVLT [YJU2B] | 2.88 ± 0.37 | 3.19 ± 0.24 | – | –
YWEAWRHHCQGKDLTEWVDGCDF [SPACA3] | – | – | 2.84 ± 0.15 | 3.04 ± 0.25
